Results published in patent US20100190689.

Experiments:
Test in all cases: filter
[1] = system: T1, GST-MBNL1-41-del105 deletion of C-terminal 105 aa (all four zinc fingers kept) (Homo sapiens), Q9NR56-5; conditions: C-terminal deletion has no significant influence on binding; same buffer
T1 sequence: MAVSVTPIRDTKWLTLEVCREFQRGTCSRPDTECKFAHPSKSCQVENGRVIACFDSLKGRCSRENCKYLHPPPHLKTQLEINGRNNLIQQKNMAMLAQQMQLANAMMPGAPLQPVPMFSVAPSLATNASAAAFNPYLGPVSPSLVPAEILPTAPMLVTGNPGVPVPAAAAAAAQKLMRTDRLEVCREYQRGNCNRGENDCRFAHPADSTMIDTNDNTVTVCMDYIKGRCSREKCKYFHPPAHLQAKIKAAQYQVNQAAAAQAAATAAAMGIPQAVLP

MBNL1-42 (Homo sapiens) = target: T2, MBNL1-42 (Homo sapiens) (UniProt Q9NR56); conditions: stated collectively for 41 and 42 kD isoforms
T2 sequence: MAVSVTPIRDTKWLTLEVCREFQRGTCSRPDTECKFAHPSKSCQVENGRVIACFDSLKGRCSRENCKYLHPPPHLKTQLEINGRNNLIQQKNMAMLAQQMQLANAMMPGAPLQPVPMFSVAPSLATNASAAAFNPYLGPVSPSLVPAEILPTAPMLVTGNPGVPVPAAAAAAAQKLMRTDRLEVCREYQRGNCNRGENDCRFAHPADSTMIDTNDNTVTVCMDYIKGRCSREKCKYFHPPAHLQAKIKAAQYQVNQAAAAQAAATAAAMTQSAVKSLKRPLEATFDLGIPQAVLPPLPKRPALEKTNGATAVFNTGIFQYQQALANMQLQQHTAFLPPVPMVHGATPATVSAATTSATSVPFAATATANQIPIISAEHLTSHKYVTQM

[2] = system: T3, GST-MBNL1-41 full length (Homo sapiens), Q9NR56-5; conditions: GST has no significant influence on binding; same buffer
T3 sequence: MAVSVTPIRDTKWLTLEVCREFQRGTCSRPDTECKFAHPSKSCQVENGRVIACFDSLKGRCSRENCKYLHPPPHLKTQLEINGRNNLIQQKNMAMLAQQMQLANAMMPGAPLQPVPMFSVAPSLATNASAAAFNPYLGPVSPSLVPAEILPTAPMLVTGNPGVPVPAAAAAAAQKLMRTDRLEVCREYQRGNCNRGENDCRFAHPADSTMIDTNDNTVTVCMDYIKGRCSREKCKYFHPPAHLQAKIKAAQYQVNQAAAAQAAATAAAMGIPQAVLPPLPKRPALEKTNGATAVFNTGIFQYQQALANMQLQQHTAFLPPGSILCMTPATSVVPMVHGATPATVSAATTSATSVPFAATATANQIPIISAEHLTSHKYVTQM

[3] = system: T4, MBNL1-41 full length, GST cleaved (Homo sapiens), Q9NR56-5; conditions: nitrocellulose filter; 50 mM Tris pH 8.0, 50 mM NaCl, 50 mM KCl, 1 mM Mg, 0.1 mM DTT; value stated for all forms tested
T4 sequence: T3 sequence

Measured: Kd

CUG [poly(CUG)109]
0.01 µM: all assays above
